Measurements published in the supplement of paper PMC7877785.
± gives the uncertainty stated by the source.

Assay: self-splicing fitness, log relative to wild type (ln ratio); higher = more splicing; Tetrahymena group I intron in knt gene, E. coli kanamycin selection, DiMSum; sequences stand for … in CUCUCU…GGAGGGAAAAGUUAUCAGGCAUGCACCUGGUAGCUAGUCUUUAAACCAAUAGAUUGCAUCGGUUUAAAAGGCAAGACCGUCAAAUUGCGGGAAAGGGGUCAACAGCCGUUCAGUACCAAGUCUCAGGGGAAACUUUGAGAUGGCCUUGCAAAGGGUAUGGUAAUAAGCUGACGGACAUGGUCCUAACCACGCAGCCAAGUCCUAAGUCAACAGAUCUUCUGUUGAUAUGGAUGCAGUUCACAGACUAAAUGUCGGUCGGGGAAGAUGUAUUCUUCUCAUAAGAUAUAGUCGGACCUCUCCUUAAUGGGAGCUAGCGGAUGAAGUGAUGCAACACUGGAGCCGCUGGGAACUAAUUUGUAUGCGAAAGUAUAUUGAUUAGUUUUGGAGUACUCGUGGUCG
Method in brief: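 Library with all eight P1ex-region intron nucleotides randomised, intron inside the knt kanamycin-resistance gene on pET-22b(+), in E. coli BL21(DE3). Cells grew overnight at 37°C or 30°C on LB agar with or without 25 μg/mL kanamycin (plus 100 μg/mL carbenicillin, 50 μM IPTG, 0.2% rhamnose), in six replicate transformations. Pooled colonies were amplicon-sequenced on Illumina HiSeq 2500. DiMSum fitness is the error-weighted combination of wild-type-normalised replicate fold changes, kanamycin versus none.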

| Sequence | self-splicing fitness (ln) (30 °C) | self-splicing fitness (ln) (37 °C) |
| --- | --- | --- |
| CAUAAGCAAUAUUACGGGAA | -2.98 ± 0.21 | -2.23 ± 0.16 |
| GCCCAGCAAUAUUACGGAAA | -0.768 ± 0.075 | -0.234 ± 0.084 |
| ACCCAGCAAUAUUACGAGCG | -2.3 ± 0.074 | -0.837 ± 0.091 |
| UUUUAGCAAUAUUACGAGAG | -1.12 ± 0.18 | -0.225 ± 0.21 |
| GAAUAGCAAUAUUACGUUGU | -3.27 ± 0.14 | -2.38 ± 0.16 |
| AAUGAGCAAUAUUACGACAU | -1.33 ± 0.014 | -0.714 ± 0.033 |
| GGGAAGCAAUAUUACGCACG | -0.766 ± 0.16 | -0.128 ± 0.18 |
| UUCUAGCAAUAUUACGGAUA | -1.44 ± 0.17 | -0.551 ± 0.15 |
| GAGCAGCAAUAUUACGGGUC | -3.07 ± 0.18 | -1.91 ± 0.17 |
| UUAGAGCAAUAUUACGCAUU | -3.24 ± 0.38 |  |
| UAAUAGCAAUAUUACGGAAC | -3.01 ± 0.2 | -0.714 ± 0.16 |
| UGCGAGCAAUAUUACGUGCG | -2.56 ± 0.27 | -0.202 ± 0.3 |
| UAUAAGCAAUAUUACGACCU | 0.317 ± 0.2 | -0.146 ± 0.23 |
| UAUGAGCAAUAUUACGAAUU | -2.36 ± 0.33 | -1.73 ± 0.32 |
| UUAAAGCAAUAUUACGACAC | -1.54 ± 0.18 | -0.0824 ± 0.22 |
| UGAGAGCAAUAUUACGGUCA | -0.647 ± 0.1 | -0.589 ± 0.13 |
| CCCCAGCAAUAUUACGGCUG | -4.06 ± 0.19 | -1.99 ± 0.15 |
| CCACAGCAAUAUUACGCGAU | -3.36 ± 0.17 | -3.66 ± 0.21 |
| UUUCAGCAAUAUUACGGCAA | -0.476 ± 0.089 | -0.0559 ± 0.11 |
| GAAGAGCAAUAUUACGUUAG | -2.19 ± 0.3 | -2.59 ± 0.31 |
| CCUGAGCAAUAUUACGCUUC | -3.16 ± 0.48 | -2.4 ± 0.41 |
| UUAGAGCAAUAUUACGCGGU | -2.71 ± 0.25 | -2.81 ± 0.48 |
| UCUGAGCAAUAUUACGUGUU | -3.93 ± 0.27 | -2.55 ± 0.23 |
| GAUCAGCAAUAUUACGGAUU | -3.32 ± 0.24 | -2.52 ± 0.24 |
| AUUCAGCAAUAUUACGGAGU | -4.52 ± 0.34 | -2.3 ± 0.23 |

| Sequence | self-splicing fitness (ln) (30 °C) | self-splicing fitness (ln) (37 °C) |
| --- | --- | --- |
| UUCCAGCAAUAUUACGUCCC | -2 ± 0.33 | -1.84 ± 0.3 |
| CUUUAGCAAUAUUACGGAUA | -3.21 ± 0.42 | -2.7 ± 0.34 |
| UUCCAGCAAUAUUACGUACG | -0.796 ± 0.1 | -0.902 ± 0.16 |
| ACAGAGCAAUAUUACGUCGA | -3.1 ± 0.3 | -2.73 ± 0.34 |
| GACCAGCAAUAUUACGUGGA | -1.67 ± 0.078 | -0.914 ± 0.081 |
| GCAAAGCAAUAUUACGGCGA | -0.683 ± 0.067 | -0.115 ± 0.084 |
| CACAAGCAAUAUUACGGGAC | -3.48 ± 0.19 | -2.86 ± 0.2 |
| GUCCAGCAAUAUUACGACGU | 0.172 ± 0.091 | 0.365 ± 0.085 |
| UAGAAGCAAUAUUACGAGCU | -3.2 ± 0.25 | -1.18 ± 0.2 |
| GUCCAGCAAUAUUACGUGAC | -1.23 ± 0.13 | -1.93 ± 0.16 |
| AGCUAGCAAUAUUACGGCCU | -0.139 ± 0.073 | -0.106 ± 0.091 |
| GUGUAGCAAUAUUACGUCGU | -1.67 ± 0.15 | -1.1 ± 0.16 |
| UUGUAGCAAUAUUACGGACU | -1.65 ± 0.14 | -0.723 ± 0.16 |
| GAAUAGCAAUAUUACGGGCC | -1.6 ± 0.26 | -1.13 ± 0.37 |
| GUACAGCAAUAUUACGGGGC | -3.74 ± 0.35 | -2.77 ± 0.47 |
| CGUAAGCAAUAUUACGGAUU | -3.61 ± 0.3 | -1.49 ± 0.23 |
| GUGAAGCAAUAUUACGAACG | -1.57 ± 0.4 |  |
| GCGAAGCAAUAUUACGCCGU | -3.41 ± 0.35 | -1.81 ± 0.29 |
| GCCUAGCAAUAUUACGCUUG | -2.37 ± 0.17 | -1.96 ± 0.26 |
| UGAGAGCAAUAUUACGAGAC | -4.44 ± 0.46 | -2.59 ± 0.29 |
| AAUGAGCAAUAUUACGAAUA | -3.37 ± 0.39 | -2 ± 0.32 |
| CUUUAGCAAUAUUACGGUAC | -2.49 ± 0.28 | -3.08 ± 0.47 |
| CACUAGCAAUAUUACGCAUC | -4.23 ± 0.43 | -3.53 ± 0.37 |
| ACCCAGCAAUAUUACGUCCU | -0.73 ± 0.075 | -0.51 ± 0.089 |
| AGGCAGCAAUAUUACGCUGA | -2.21 ± 0.13 | -1.84 ± 0.21 |

| Sequence | self-splicing fitness (ln) (30 °C) | self-splicing fitness (ln) (37 °C) |
| --- | --- | --- |
| UAAAAGCAAUAUUACGGUCG | -0.35 ± 0.087 | -0.0674 ± 0.1 |
| AUUAAGCAAUAUUACGGCGG | -1.18 ± 0.16 | -0.145 ± 0.18 |
| CCUGAGCAAUAUUACGACUC | -1.44 ± 0.36 | -1.6 ± 0.49 |
| UGCAAGCAAUAUUACGCAUG | -3.63 ± 0.21 | -2.32 ± 0.29 |
| AUUGAGCAAUAUUACGCGCC | -1.62 ± 0.48 |  |
| CGCAAGCAAUAUUACGUCCC | -2.84 ± 0.34 | -0.615 ± 0.26 |
| AUCUAGCAAUAUUACGCGCG | -0.762 ± 0.095 | -0.257 ± 0.12 |
| CGCCAGCAAUAUUACGGGGG | -3 ± 0.16 | -2.17 ± 0.2 |
| UCUAAGCAAUAUUACGACAG | -1.58 ± 0.1 | -0.799 ± 0.15 |
| UUUAAGCAAUAUUACGUUAC | -3.76 ± 0.3 | -3.05 ± 0.26 |
| GCUGAGCAAUAUUACGGAUC | -1.43 ± 0.087 | -0.415 ± 0.12 |
| AGACAGCAAUAUUACGUCUC | -2.87 ± 0.19 | -3.53 ± 0.35 |
| CGGCAGCAAUAUUACGUCGA | -3.24 ± 0.19 | -1.07 ± 0.15 |
| AAGAAGCAAUAUUACGAAGG | -3.33 ± 0.38 | -2.01 ± 0.36 |
| CCAAAGCAAUAUUACGUCGU | -3.82 ± 0.19 | -2.75 ± 0.23 |
| GGGGAGCAAUAUUACGUCAA | -2.48 ± 0.3 | -3.16 ± 0.35 |
| UAGGAGCAAUAUUACGUGGU | -3.87 ± 0.29 | -2.26 ± 0.24 |
| GCUCAGCAAUAUUACGUAUU | -0.945 ± 0.053 | -0.23 ± 0.068 |
| GGCUAGCAAUAUUACGUUGG | -2.34 ± 0.16 | -3.24 ± 0.32 |
| CUUCAGCAAUAUUACGCCAG | -0.975 ± 0.11 | -0.132 ± 0.17 |
| GGUCAGCAAUAUUACGGAUC | -2.95 ± 0.22 | -0.0513 ± 0.21 |
| CUCAAGCAAUAUUACGAGGC | -3.51 ± 0.3 | -2.65 ± 0.27 |
| GUAGAGCAAUAUUACGGACA | -0.864 ± 0.17 | -1.72 ± 0.27 |
| GAUUAGCAAUAUUACGGACG | -0.885 ± 0.19 | 0.241 ± 0.16 |
| CAGGAGCAAUAUUACGGUGU | -3.1 ± 0.15 | -2.66 ± 0.2 |

| Sequence | self-splicing fitness (ln) (30 °C) | self-splicing fitness (ln) (37 °C) |
| --- | --- | --- |
| GACGAGCAAUAUUACGUGUA | -5.08 ± 0.25 | -2.49 ± 0.14 |
| GAAGAGCAAUAUUACGUAAU | -3.03 ± 0.2 | -1.22 ± 0.23 |
| UAUGAGCAAUAUUACGAGCU | -2.71 ± 0.2 | -2.09 ± 0.42 |
| AUAGAGCAAUAUUACGCGGC | -3.33 ± 0.35 | -1.78 ± 0.25 |
| CGGCAGCAAUAUUACGGAUC | -2.88 ± 0.27 | -2.04 ± 0.2 |
| CCGUAGCAAUAUUACGUUUU | -4.21 ± 0.23 | -2.87 ± 0.22 |
| AUUCAGCAAUAUUACGCGAU | -3.46 ± 0.18 | -3.23 ± 0.26 |
| AUCGAGCAAUAUUACGGCUC | -1.39 ± 0.36 | -1.56 ± 0.49 |
| GGCGAGCAAUAUUACGCCUC | -1.67 ± 0.33 |  |
| GCUGAGCAAUAUUACGACCC |  | -0.524 ± 0.39 |
| AGCCAGCAAUAUUACGCAUA | -2.21 ± 0.15 | -1.34 ± 0.16 |
| AGACAGCAAUAUUACGCAAU | -2.41 ± 0.17 | -0.644 ± 0.11 |
| CUGAAGCAAUAUUACGCCCG | -0.0662 ± 0.23 | 0.309 ± 0.24 |
| AGAUAGCAAUAUUACGUUAC | -2.05 ± 0.48 |  |
| UGGGAGCAAUAUUACGAAGG |  | -1.1 ± 0.41 |
| AUGUAGCAAUAUUACGGUCG | -1.44 ± 0.12 | -1.59 ± 0.17 |
| UUUCAGCAAUAUUACGCUCC | -1.69 ± 0.22 | -1.02 ± 0.29 |
| ACACAGCAAUAUUACGACUU | -0.131 ± 0.043 | 0.0165 ± 0.056 |
| AUAUAGCAAUAUUACGUCCA | -1.87 ± 0.34 | -0.0483 ± 0.29 |
| CGUGAGCAAUAUUACGGCUC | -3.79 ± 0.42 | -1.23 ± 0.27 |
| ACCCAGCAAUAUUACGAUGC | -1.31 ± 0.06 | 0.13 ± 0.073 |
| GAUAAGCAAUAUUACGCUGA |  | -1.31 ± 0.22 |
